B1: Compound 73 (peptide)
peptide: Palmitoyl-SGRVLATKLRETNA-NH2
SMILES: CCCCCCCCCCCCCCCC(=O)N[C@@H](CO)C(=O)NCC(=O)N[C@@H](CCCNC(=N)N)C(=O)N[C@H](C(=O)N[C@@H](CC(C)C)C(=O)N[C@@H](C)C(=O)N[C@H](C(=O)N[C@@H](CCCCN)C(=O)N[C@@H](CC(C)C)C(=O)N[C@@H](CCCNC(=N)N)C(=O)N[C@@H](CCC(=O)O)C(=O)N[C@H](C(=O)N[C@@H](CC(N)=O)C(=O)N[C@@H](C)C(N)=O)[C@@H](C)O)[C@@H](C)O)C(C)C
B2: Compound 97 (peptide)
peptide: Palmitoyl-KKSWSRWTLALDFKRKAR-NH2
SMILES: CCCCCCCCCCCCCCCC(=O)N[C@@H](CCCCN)C(=O)N[C@@H](CCCCN)C(=O)N[C@@H](CO)C(=O)N[C@@H](Cc1c[nH]c2ccccc12)C(=O)N[C@@H](CO)C(=O)N[C@@H](CCCNC(=N)N)C(=O)N[C@@H](Cc1c[nH]c2ccccc12)C(=O)N[C@H](C(=O)N[C@@H](CC(C)C)C(=O)N[C@@H](C)C(=O)N[C@@H](CC(C)C)C(=O)N[C@@H](CC(=O)O)C(=O)N[C@@H](Cc1ccccc1)C(=O)N[C@@H](CCCCN)C(=O)N[C@@H](CCCNC(=N)N)C(=O)N[C@@H](CCCCN)C(=O)N[C@@H](C)C(=O)N[C@@H](CCCNC(=N)N)C(N)=O)[C@@H](C)O
B3: Compound 15 (peptide)
peptide: Palmitoyl-RRLHSTRNYIHM-NH2
SMILES: CCCCCCCCCCCCCCCC(=O)N[C@@H](CCCNC(=N)N)C(=O)N[C@@H](CCCNC(=N)N)C(=O)N[C@@H](CC(C)C)C(=O)N[C@@H](Cc1c[nH]cn1)C(=O)N[C@@H](CO)C(=O)N[C@H](C(=O)N[C@@H](CCCNC(=N)N)C(=O)N[C@@H](CC(N)=O)C(=O)N[C@@H](Cc1ccc(O)cc1)C(=O)N[C@H](C(=O)N[C@@H](Cc1c[nH]cn1)C(=O)N[C@@H](CCSC)C(N)=O)[C@@H](C)CC)[C@@H](C)O
B4: Compound 75 (peptide)
peptide: Palmitoyl-RVLATKLRETNAGR-NH2
SMILES: CCCCCCCCCCCCCCCC(=O)N[C@@H](CCCNC(=N)N)C(=O)N[C@H](C(=O)N[C@@H](CC(C)C)C(=O)N[C@@H](C)C(=O)N[C@H](C(=O)N[C@@H](CCCCN)C(=O)N[C@@H](CC(C)C)C(=O)N[C@@H](CCCNC(=N)N)C(=O)N[C@@H](CCC(=O)O)C(=O)N[C@H](C(=O)N[C@@H](CC(N)=O)C(=O)N[C@@H](C)C(=O)NCC(=O)N[C@@H](CCCNC(=N)N)C(N)=O)[C@@H](C)O)[C@@H](C)O)C(C)C
B5: Compound 96 (peptide)
peptide: Palmitoyl-EIKKSWSRWTLALDFKRKAR-NH2
SMILES: CCCCCCCCCCCCCCCC(=O)N[C@@H](CCC(=O)O)C(=O)N[C@H](C(=O)N[C@@H](CCCCN)C(=O)N[C@@H](CCCCN)C(=O)N[C@@H](CO)C(=O)N[C@@H](Cc1c[nH]c2ccccc12)C(=O)N[C@@H](CO)C(=O)N[C@@H](CCCNC(=N)N)C(=O)N[C@@H](Cc1c[nH]c2ccccc12)C(=O)N[C@H](C(=O)N[C@@H](CC(C)C)C(=O)N[C@@H](C)C(=O)N[C@@H](CC(C)C)C(=O)N[C@@H](CC(=O)O)C(=O)N[C@@H](Cc1ccccc1)C(=O)N[C@@H](CCCCN)C(=O)N[C@@H](CCCNC(=N)N)C(=O)N[C@@H](CCCCN)C(=O)N[C@@H](C)C(=O)N[C@@H](CCCNC(=N)N)C(N)=O)[C@@H](C)O)[C@@H](C)CC
B6: Compound 42 (peptide)
peptide: Palmitoyl-GSEKKYLWGFT-NH2
SMILES: CCCCCCCCCCCCCCCC(=O)NCC(=O)N[C@@H](CO)C(=O)N[C@@H](CCC(=O)O)C(=O)N[C@@H](CCCCN)C(=O)N[C@@H](CCCCN)C(=O)N[C@@H](Cc1ccc(O)cc1)C(=O)N[C@@H](CC(C)C)C(=O)N[C@@H](Cc1c[nH]c2ccccc12)C(=O)NCC(=O)N[C@@H](Cc1ccccc1)C(=O)N[C@H](C(N)=O)[C@@H](C)O
B7: Compound 41 (peptide)
peptide: Palmitoyl-GSEKKYLWGFTVF-NH2
SMILES: CCCCCCCCCCCCCCCC(=O)NCC(=O)N[C@@H](CO)C(=O)N[C@@H](CCC(=O)O)C(=O)N[C@@H](CCCCN)C(=O)N[C@@H](CCCCN)C(=O)N[C@@H](Cc1ccc(O)cc1)C(=O)N[C@@H](CC(C)C)C(=O)N[C@@H](Cc1c[nH]c2ccccc12)C(=O)NCC(=O)N[C@@H](Cc1ccccc1)C(=O)N[C@H](C(=O)N[C@H](C(=O)N[C@@H](Cc1ccccc1)C(N)=O)C(C)C)[C@@H](C)O
B8: Compound 4 (peptide)
peptide: Palmitoyl-LAYFRRLHSTR-NH2
SMILES: CCCCCCCCCCCCCCCC(=O)N[C@@H](CC(C)C)C(=O)N[C@@H](C)C(=O)N[C@@H](Cc1ccc(O)cc1)C(=O)N[C@@H](Cc1ccccc1)C(=O)N[C@@H](CCCNC(=N)N)C(=O)N[C@@H](CCCNC(=N)N)C(=O)N[C@@H](CC(C)C)C(=O)N[C@@H](Cc1c[nH]cn1)C(=O)N[C@@H](CO)C(=O)N[C@H](C(=O)N[C@@H](CCCNC(=N)N)C(N)=O)[C@@H](C)O
B9: Compound 17 (peptide)
peptide: Palmitoyl-SGRRLHSTRNYIHMH-NH2
SMILES: CCCCCCCCCCCCCCCC(=O)N[C@@H](CO)C(=O)NCC(=O)N[C@@H](CCCNC(=N)N)C(=O)N[C@@H](CCCNC(=N)N)C(=O)N[C@@H](CC(C)C)C(=O)N[C@@H](Cc1c[nH]cn1)C(=O)N[C@@H](CO)C(=O)N[C@H](C(=O)N[C@@H](CCCNC(=N)N)C(=O)N[C@@H](CC(N)=O)C(=O)N[C@@H](Cc1ccc(O)cc1)C(=O)N[C@H](C(=O)N[C@@H](Cc1c[nH]cn1)C(=O)N[C@@H](CCSC)C(=O)N[C@@H](Cc1c[nH]cn1)C(N)=O)[C@@H](C)CC)[C@@H](C)O
B10: Compound 16 (peptide)
peptide: Palmitoyl-RRLHSTRNYIHMHL-NH2
SMILES: CCCCCCCCCCCCCCCC(=O)N[C@@H](CCCNC(=N)N)C(=O)N[C@@H](CCCNC(=N)N)C(=O)N[C@@H](CC(C)C)C(=O)N[C@@H](Cc1c[nH]cn1)C(=O)N[C@@H](CO)C(=O)N[C@H](C(=O)N[C@@H](CCCNC(=N)N)C(=O)N[C@@H](CC(N)=O)C(=O)N[C@@H](Cc1ccc(O)cc1)C(=O)N[C@H](C(=O)N[C@@H](Cc1c[nH]cn1)C(=O)N[C@@H](CCSC)C(=O)N[C@@H](Cc1c[nH]cn1)C(=O)N[C@@H](CC(C)C)C(N)=O)[C@@H](C)CC)[C@@H](C)O
B11: Compound 5 (peptide)
peptide: Palmitoyl-LAYFRRLHSTRNYIH-NH2
SMILES: CCCCCCCCCCCCCCCC(=O)N[C@@H](CC(C)C)C(=O)N[C@@H](C)C(=O)N[C@@H](Cc1ccc(O)cc1)C(=O)N[C@@H](Cc1ccccc1)C(=O)N[C@@H](CCCNC(=N)N)C(=O)N[C@@H](CCCNC(=N)N)C(=O)N[C@@H](CC(C)C)C(=O)N[C@@H](Cc1c[nH]cn1)C(=O)N[C@@H](CO)C(=O)N[C@H](C(=O)N[C@@H](CCCNC(=N)N)C(=O)N[C@@H](CC(N)=O)C(=O)N[C@@H](Cc1ccc(O)cc1)C(=O)N[C@H](C(=O)N[C@@H](Cc1c[nH]cn1)C(N)=O)[C@@H](C)CC)[C@@H](C)O
B12: Compound 72 (peptide)
peptide: Palmitoyl-SGRVLATKLRET-NH2
SMILES: CCCCCCCCCCCCCCCC(=O)N[C@@H](CO)C(=O)NCC(=O)N[C@@H](CCCNC(=N)N)C(=O)N[C@H](C(=O)N[C@@H](CC(C)C)C(=O)N[C@@H](C)C(=O)N[C@H](C(=O)N[C@@H](CCCCN)C(=O)N[C@@H](CC(C)C)C(=O)N[C@@H](CCCNC(=N)N)C(=O)N[C@@H](CCC(=O)O)C(=O)N[C@H](C(N)=O)[C@@H](C)O)[C@@H](C)O)C(C)C
B13: Compound 74 (peptide)
peptide: Palmitoyl-SGRVLATKLRETNAGR-NH2
SMILES: CCCCCCCCCCCCCCCC(=O)N[C@@H](CO)C(=O)NCC(=O)N[C@@H](CCCNC(=N)N)C(=O)N[C@H](C(=O)N[C@@H](CC(C)C)C(=O)N[C@@H](C)C(=O)N[C@H](C(=O)N[C@@H](CCCCN)C(=O)N[C@@H](CC(C)C)C(=O)N[C@@H](CCCNC(=N)N)C(=O)N[C@@H](CCC(=O)O)C(=O)N[C@H](C(=O)N[C@@H](CC(N)=O)C(=O)N[C@@H](C)C(=O)NCC(=O)N[C@@H](CCCNC(=N)N)C(N)=O)[C@@H](C)O)[C@@H](C)O)C(C)C
B14: Compound 43 (peptide)
peptide: Palmitoyl-GSEKKYLWG-NH2
SMILES: CCCCCCCCCCCCCCCC(=O)NCC(=O)N[C@@H](CO)C(=O)N[C@@H](CCC(=O)O)C(=O)N[C@@H](CCCCN)C(=O)N[C@@H](CCCCN)C(=O)N[C@@H](Cc1ccc(O)cc1)C(=O)N[C@@H](CC(C)C)C(=O)N[C@@H](Cc1c[nH]c2ccccc12)C(=O)NCC(N)=O

* marks the point of attachment. Palmitoyl = CCCCCCCCCCCCCCCC(=O)*

This test deals with PTHR1 receptor.
PTHR1 receptor, sequence (P25961 whole entry): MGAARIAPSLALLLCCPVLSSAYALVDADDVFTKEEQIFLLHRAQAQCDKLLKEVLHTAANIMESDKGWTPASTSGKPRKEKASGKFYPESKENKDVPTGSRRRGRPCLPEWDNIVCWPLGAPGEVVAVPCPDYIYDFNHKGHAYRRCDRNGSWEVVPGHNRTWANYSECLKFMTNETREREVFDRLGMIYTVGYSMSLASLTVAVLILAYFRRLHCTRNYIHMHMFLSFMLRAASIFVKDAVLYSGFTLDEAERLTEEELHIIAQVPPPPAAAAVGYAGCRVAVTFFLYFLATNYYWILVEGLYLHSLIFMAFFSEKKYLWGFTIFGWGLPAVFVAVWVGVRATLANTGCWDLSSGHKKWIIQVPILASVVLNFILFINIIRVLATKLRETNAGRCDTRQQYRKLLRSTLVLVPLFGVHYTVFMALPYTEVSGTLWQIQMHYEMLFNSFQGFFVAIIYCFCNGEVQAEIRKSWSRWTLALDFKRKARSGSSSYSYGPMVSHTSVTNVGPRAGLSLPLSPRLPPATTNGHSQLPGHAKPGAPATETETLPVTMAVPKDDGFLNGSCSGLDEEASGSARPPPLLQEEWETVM
For B1, the Fold Shift of EC50 was determined as 0.8 fold and the Inhibition of Maximal Response worked out at 32.3%.

Turning to B2, the Fold Shift of EC50 turned out to be 4.7 fold and the Inhibition of Maximal Response was 37.2%.

As for B3, the Fold Shift of EC50 was found to be 1.7 fold and the Inhibition of Maximal Response was 1.5%.

Consider B4, for which the Fold Shift of EC50 worked out at 1.1 fold and the Inhibition of Maximal Response amounted to 12.6%.

With B5, the Fold Shift of EC50 stood at 1.1 fold and the Inhibition of Maximal Response was found to be 7%.

With B6, the Fold Shift of EC50 was found to be 1.3 fold and the Inhibition of Maximal Response was 40.8%.

Take B7: the Fold Shift of EC50 is 0.9 fold and the Inhibition of Maximal Response turned out to be 17.7%.

With B8, the Fold Shift of EC50 was determined as 0.9 fold and the Inhibition of Maximal Response is -74.2%.

For B9, the Fold Shift of EC50 came to 2.8 fold and the Inhibition of Maximal Response stood at 39.4%.

In the case of B10, the Fold Shift of EC50 stood at 2.45 fold and the Inhibition of Maximal Response was 0.0965.

In the case of B11, the Fold Shift of EC50 came to 1 fold and the Inhibition of Maximal Response was found to be 13%.

Turning to B12, the Fold Shift of EC50 worked out at 0.7 fold and the Inhibition of Maximal Response is 22.3%.

As to B13, the Fold Shift of EC50 amounted to 1.9 fold and the Inhibition of Maximal Response was 22.2%.

In the case of B14, the Fold Shift of EC50 was determined as 1.4 fold and the Inhibition of Maximal Response was 5.7%.

The values are drawn from patent US20110294738A1, “PTHR1 RECEPTOR COMPOUNDS” (priority 2008, published 2011).
